From patent US20070134663

Assays:
[1] = molecular target: FLAG-KPNA1, P52294
[2] = molecular target: FLAG-Luc [luciferase: P08659]
[3] = molecular target: T1, MSN-V5-His, P26038
T1 chain: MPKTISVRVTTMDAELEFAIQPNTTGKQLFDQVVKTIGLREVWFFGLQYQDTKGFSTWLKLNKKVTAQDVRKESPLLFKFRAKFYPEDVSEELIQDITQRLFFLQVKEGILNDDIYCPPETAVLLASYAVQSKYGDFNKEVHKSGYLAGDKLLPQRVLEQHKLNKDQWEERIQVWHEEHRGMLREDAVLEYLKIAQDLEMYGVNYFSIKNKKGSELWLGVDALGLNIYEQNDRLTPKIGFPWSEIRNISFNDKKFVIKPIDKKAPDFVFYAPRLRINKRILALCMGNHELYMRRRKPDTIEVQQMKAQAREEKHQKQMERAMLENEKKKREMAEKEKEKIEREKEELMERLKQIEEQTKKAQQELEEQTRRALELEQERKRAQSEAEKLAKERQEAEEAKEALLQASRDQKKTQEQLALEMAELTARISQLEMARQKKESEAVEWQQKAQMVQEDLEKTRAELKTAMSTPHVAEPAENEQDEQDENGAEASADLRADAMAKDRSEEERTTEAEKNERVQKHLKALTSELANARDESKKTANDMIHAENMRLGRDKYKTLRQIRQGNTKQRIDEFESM

Chain of FLAG-KPNA1, P52294 (P52294 whole entry): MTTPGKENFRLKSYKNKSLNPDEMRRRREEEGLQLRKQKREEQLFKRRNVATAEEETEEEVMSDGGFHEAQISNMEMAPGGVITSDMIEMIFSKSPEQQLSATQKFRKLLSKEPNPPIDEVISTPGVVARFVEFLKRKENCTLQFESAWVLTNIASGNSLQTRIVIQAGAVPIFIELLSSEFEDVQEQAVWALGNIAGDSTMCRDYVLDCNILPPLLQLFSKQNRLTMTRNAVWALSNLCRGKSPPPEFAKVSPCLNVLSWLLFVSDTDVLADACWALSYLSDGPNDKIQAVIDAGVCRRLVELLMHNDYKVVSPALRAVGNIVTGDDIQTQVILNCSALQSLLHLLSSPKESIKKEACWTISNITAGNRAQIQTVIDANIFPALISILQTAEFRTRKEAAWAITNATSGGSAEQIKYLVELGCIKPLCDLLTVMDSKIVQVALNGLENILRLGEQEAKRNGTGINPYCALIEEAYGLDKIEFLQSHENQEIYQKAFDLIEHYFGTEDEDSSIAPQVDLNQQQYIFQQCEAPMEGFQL
Chain of FLAG-Luc [luciferase: P08659] (P08659 whole entry): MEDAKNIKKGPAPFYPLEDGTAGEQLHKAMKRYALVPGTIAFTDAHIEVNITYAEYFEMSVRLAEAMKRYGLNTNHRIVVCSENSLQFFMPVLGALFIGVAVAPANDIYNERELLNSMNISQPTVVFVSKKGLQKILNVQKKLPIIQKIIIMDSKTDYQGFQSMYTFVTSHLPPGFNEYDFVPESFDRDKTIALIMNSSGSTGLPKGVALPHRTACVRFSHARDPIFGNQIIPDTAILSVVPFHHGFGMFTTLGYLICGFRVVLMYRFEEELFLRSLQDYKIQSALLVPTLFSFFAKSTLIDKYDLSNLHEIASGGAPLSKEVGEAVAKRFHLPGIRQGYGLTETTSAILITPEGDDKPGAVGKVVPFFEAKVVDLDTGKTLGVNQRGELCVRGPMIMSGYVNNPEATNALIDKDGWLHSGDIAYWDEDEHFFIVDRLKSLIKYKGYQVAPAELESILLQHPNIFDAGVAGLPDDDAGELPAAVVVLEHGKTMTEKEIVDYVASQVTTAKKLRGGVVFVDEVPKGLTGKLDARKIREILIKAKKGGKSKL

B1: purified PKC theta (Upstate) (protein)
chain: MSPFLRIGLSNFDCGSCQSCQGEAVNPYCAVLVKEYVESENGQMYIQKKPTMYPPWDSTFDAHINKGRVMQIIVKGKNVDLISETTVELYSLAERCRKNNGKTEIWLELKPQGRMLMNARYFLEMSDTKDMNEFETEGFFALHQRRGAIKQAKVHHVKCHEFTATFFPQPTFCSVCHEFVWGLNKQGYQCRQCNAAIHKKCIDKVIAKCTGSAINSRETMFHKERFKIDMPHRFKVYNYKSPTFCEHCGTLLWGLARQGLKCDACGMNVHHRCQTKVANLCGINQKLMAEALAMIESTQQARCLRDTEQIFREGPVEIGLPCSIKNEARPPCLPTPGKREPQGISWESPLDEVDKMCHLPEPELNKERPSLQIKLKIEDFILHKMLGKGSFGKVFLAEFKKTNQFFAIKALKKDVVLMDDDVECTMVEKRVLSLAWEHPFLTHMFCTFQTKENLFFVMEYLNGGDLMYHIQSCHKFDLSRATFYAAEIILGLQFLHSKGIVYRDLKLDNILLDKDGHIKIADFGMCKENMLGDAKTNTFCGTPDYIAPEILLGQKYNHSVDWWSFGVLLYEMLIGQSPFHGQDEEELFHSIRMDNPFYPRWLEKEAKDLLVKLFVREPEKRLGVRGDIRQHPLFREINWEELERKEIDPPFRPKVKSPFDCSNFDKEFLNEKPRLSFADRALINSMDQNMFRNFSFMNPGMERLIS
In the case of B1, the “phosphorylation of substrate, in vitro kinase assay with gamma-32P-ATP, SDS-PAGE and autoradiography” value (from here on “phosphorylation of substrate”) [1] is reported as “phosphorylated band of KPNA1 (molecular weight of about 63 kDa) was observed”, the “phosphorylation of substrate” value [2] is reported as “the negative control Luc does not contain phosphorylated band (molecular weight of about 62 kDa)” and the “phosphorylation of substrate” value [3] is reported as “the positive control MSN contains phosphorylated band (molecular weight of about 71 kDa)”.
